Source: PMC6473903, “Isoform-Specific NO Synthesis by Arabidopsis thaliana Nitrate Reductase” (Plants, 2019)
Numbering of substitutions follows the chain as printed. Names and notes keep the numbering of the source. Values belong to the molecule of their own block, whether it stands above or below them.

Experiments:
[1] = molecular target: T1, re-constituted (composite) NIA1 (Arabidopsis thaliana, UniProt P11832); assay: NO analyzer, inhibition of nitrite reduction (NO production); format: biochemical
T1 construct: both from E. coli, IMAC purified; with Nitrate reductase [NADH]
T1 sequence (P11832 1-627): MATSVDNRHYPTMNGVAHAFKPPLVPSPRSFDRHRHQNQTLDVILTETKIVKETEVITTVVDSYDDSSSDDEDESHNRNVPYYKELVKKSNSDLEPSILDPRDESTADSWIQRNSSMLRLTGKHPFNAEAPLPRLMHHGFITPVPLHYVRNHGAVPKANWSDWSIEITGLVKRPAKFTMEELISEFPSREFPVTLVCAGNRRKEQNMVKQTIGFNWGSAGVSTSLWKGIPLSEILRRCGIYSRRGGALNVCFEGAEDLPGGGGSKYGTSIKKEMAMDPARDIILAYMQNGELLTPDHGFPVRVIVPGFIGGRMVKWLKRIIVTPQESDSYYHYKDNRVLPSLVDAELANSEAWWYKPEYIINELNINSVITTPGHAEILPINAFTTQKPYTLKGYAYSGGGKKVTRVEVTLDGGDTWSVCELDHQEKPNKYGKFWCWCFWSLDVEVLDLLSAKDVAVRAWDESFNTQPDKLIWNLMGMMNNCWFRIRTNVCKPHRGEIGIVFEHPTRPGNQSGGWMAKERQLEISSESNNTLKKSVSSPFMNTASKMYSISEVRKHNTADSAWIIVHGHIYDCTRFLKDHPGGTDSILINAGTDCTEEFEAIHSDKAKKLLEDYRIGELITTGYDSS
T1 sequence (P11832 628-917 partner): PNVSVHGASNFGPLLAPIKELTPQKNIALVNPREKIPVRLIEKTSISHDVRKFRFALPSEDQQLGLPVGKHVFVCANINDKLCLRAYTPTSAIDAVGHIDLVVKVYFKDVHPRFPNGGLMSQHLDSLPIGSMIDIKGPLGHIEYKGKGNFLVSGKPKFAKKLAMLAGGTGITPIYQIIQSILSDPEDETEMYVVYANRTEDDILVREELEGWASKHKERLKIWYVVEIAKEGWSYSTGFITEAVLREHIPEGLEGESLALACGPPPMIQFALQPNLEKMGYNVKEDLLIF

[2] = molecular target: T2, re-constituted (composite) NIA2 (Arabidopsis thaliana, UniProt P11035); assay: as above; format: biochemical
T2 construct: both from E. coli, IMAC purified; with Nitrate reductase [NADH]
T2 sequence (P11035 1-625): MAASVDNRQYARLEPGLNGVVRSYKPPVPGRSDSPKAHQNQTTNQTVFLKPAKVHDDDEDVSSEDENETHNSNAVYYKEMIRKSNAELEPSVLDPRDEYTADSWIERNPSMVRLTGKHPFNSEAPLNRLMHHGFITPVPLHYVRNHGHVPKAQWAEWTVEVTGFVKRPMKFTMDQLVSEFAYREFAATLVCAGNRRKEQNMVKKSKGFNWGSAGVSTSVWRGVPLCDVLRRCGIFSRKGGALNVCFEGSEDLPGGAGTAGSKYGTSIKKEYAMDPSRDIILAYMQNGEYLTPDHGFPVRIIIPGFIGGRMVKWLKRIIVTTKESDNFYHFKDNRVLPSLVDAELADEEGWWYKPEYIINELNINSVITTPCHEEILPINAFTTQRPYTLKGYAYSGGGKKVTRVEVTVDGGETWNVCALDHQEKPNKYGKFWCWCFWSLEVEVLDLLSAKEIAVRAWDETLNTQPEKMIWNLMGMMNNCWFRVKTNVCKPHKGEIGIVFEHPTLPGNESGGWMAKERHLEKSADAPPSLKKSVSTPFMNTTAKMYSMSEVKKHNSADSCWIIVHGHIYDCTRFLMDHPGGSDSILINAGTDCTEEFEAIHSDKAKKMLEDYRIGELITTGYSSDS
T2 sequence (P11035 626-917 partner): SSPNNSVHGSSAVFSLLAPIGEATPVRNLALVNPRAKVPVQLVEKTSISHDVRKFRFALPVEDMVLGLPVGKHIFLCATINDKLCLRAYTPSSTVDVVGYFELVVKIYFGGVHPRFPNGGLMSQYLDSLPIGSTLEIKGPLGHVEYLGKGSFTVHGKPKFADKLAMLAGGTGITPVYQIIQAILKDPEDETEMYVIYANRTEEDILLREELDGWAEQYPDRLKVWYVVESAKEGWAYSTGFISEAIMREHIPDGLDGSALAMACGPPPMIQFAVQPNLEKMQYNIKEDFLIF

[3] = substrate: O=NO; assay: BV:nitrite steady-state assay, A595; format: biochemical, Arabidopsis thaliana; conditions: reduced benzyl viologen as electron donor, pH 7.5, 22-25 °C, anaerobic
Source text: BV:nitrite steady-state assay, A595 on NIA1-Mo-heme

[4] = substrate: O=NO; assay: BV:nitrite steady-state assay, A595; format: biochemical, Arabidopsis thaliana; conditions: reduced benzyl viologen as electron donor, pH 7.5, 22-25 °C, anaerobic; remark: listed apart in the source
Source text: BV:nitrite steady-state assay, A595 on NIA2-Mo-heme

[5] = molecular target: T3, Arabidopsis thaliana NIA1-Mo-heme fragment (residues 1-627) (Arabidopsis thaliana) (UniProt P11832)
T3 sequence: T1 sequence (P11832 1-627)

[6] = molecular target: T4, Arabidopsis thaliana NIA2-Mo-heme fragment (residues 1-625) (Arabidopsis thaliana) (UniProt P11035)
T4 sequence: T2 sequence (P11035 1-625)

[7] = substrate: O=NO; assay: BV:nitrite steady-state assay, A595; format: biochemical, Arabidopsis thaliana; conditions: reduced benzyl viologen as electron donor, pH 7.5, 22-25 °C, anaerobic; remark: listed apart in the source
Source text: BV:nitrite steady-state assay, A595 on NIA1-Mo

IC50 [1]: 12 ± 1.7 µM
IC50 [2]: 36 ± 2.7 µM
Molecule: O=[N+]([O-])O [nitrate]

B1: NIA1-Mo-heme (Arabidopsis thaliana) (protein)
chain: T1 sequence (P11832 1-627)
notes: N-terminal Moco + hinge 1 + heme domain fragment, residues 1-627; pQE80L, E. coli, Ni-NTA (IMAC) and SEC purified
Km [3]: 35.5 ± 2.7 µM
kcat [3]: 19.8 ± 4.8 s⁻¹

B2: NIA2-Mo-heme (Arabidopsis thaliana) (protein)
chain: T2 sequence (P11035 1-625)
notes: N-terminal Moco + hinge 1 + heme domain fragment, residues 1-625; E. coli TP1004, Ni-NTA and SEC purified
Km [4]: 13.7 ± 3.3 µM
kcat [4]: 1.8 ± 0.3 s⁻¹

B3: NIA2-Mo-heme (Arabidopsis thaliana; H600A) (protein)
chain: T2 sequence (P11035 1-625) with H600A
notes: as for B2
Km ([4]; heme-coordinating His mutated): 10.3 ± 1.2 µM
kcat ([4]; heme-coordinating His mutated): 1.2 ± 0.02 s⁻¹

apparent kcat of the steady-state NADH:nitrate assay of re-constituted NIA1 (100 nM NIA1-Mo-heme + 5 µM NIA1-FAD, ratio 1:50) [5]: 9.6 s⁻¹
B4: Arabidopsis thaliana NIA1-FAD fragment (residues 628-917) (domain or fragment)
chain: T1 sequence (P11832 628-917 partner)

apparent kcat of the steady-state NADH:nitrate assay of re-constituted NIA2 (100 nM NIA2-Mo-heme + 5 µM NIA2-FAD, ratio 1:50) [6]: 13.4 s⁻¹
B5: Arabidopsis thaliana NIA2-FAD fragment (residues 626-917) (domain or fragment)
chain: T2 sequence (P11035 626-917 partner)

B6: NIA1-Mo (Arabidopsis thaliana) (protein)
chain: MATSVDNRHYPTMNGVAHAFKPPLVPSPRSFDRHRHQNQTLDVILTETKIVKETEVITTVVDSYDDSSSDDEDESHNRNVPYYKELVKKSNSDLEPSILDPRDESTADSWIQRNSSMLRLTGKHPFNAEAPLPRLMHHGFITPVPLHYVRNHGAVPKANWSDWSIEITGLVKRPAKFTMEELISEFPSREFPVTLVCAGNRRKEQNMVKQTIGFNWGSAGVSTSLWKGIPLSEILRRCGIYSRRGGALNVCFEGAEDLPGGGGSKYGTSIKKEMAMDPARDIILAYMQNGELLTPDHGFPVRVIVPGFIGGRMVKWLKRIIVTPQESDSYYHYKDNRVLPSLVDAELANSEAWWYKPEYIINELNINSVITTPGHAEILPINAFTTQKPYTLKGYAYSGGGKKVTRVEVTLDGGDTWSVCELDHQEKPNKYGKFWCWCFWSLDVEVLDLLSAKDVAVRAWDESFNTQPDKLIWNLMGMMNNCWFRIRT
notes: Moco domain only, residues 1-488; His-tagged, pQE80L, E. coli TP1004
Km [7]: 35.3 ± 3.2 µM
kcat [7]: 138 ± 2.5 s⁻¹
